Results: publication PMC12700550, “DLL4^+ neutrophils promote Notch1-mediated endothelial PANoptosis to exacerbate acute lung injury in sepsis” (The Journal of Clinical Investigation, 2025)
Where “and” joins values, the source holds several entries; their conditions need not be identical. Equal entries are not always repeated.

Experiments:
C57BL/6 mice, CLP sepsis = assay: Serum alanine aminotransferase (ALT), CLP mice; type: in vivo, mouse; design: serum ALT (Figure 6A): unit not given here; details: 20 h; for serum ALT (Figure 6A): 10 mg/kg NDI, individual mice
Experimental: Sepsis was induced in mice by cecal ligation and puncture (CLP) as described previously ([45], [46]). Mice were anesthetized with isoflurane to a surgical plane and placed in a supine position. CLP was performed through a midline laparotomy. The abdomen was shaved and disinfected. Through a 2 cm midline incision, the cecum was exposed and then ligated with a 4-0 silk suture 1 cm proximal from the distal cecal extremity. […] A small amount of cecal content was extruded through both holes, and the ligated cecum was returned to the peritoneal cavity. The wound was closed in layers. […] A small amount of cecal content was extruded. […] Vehicle groups received an equivalent volume of PBS, while treatment groups received NDI 10 mg/kg in […] PBS via retro-orbital injection after CLP. This dose was chosen primarily on the basis of our laboratory’s prior experience, we have consistently used this dose in mouse CLP models with reproducible efficacy and without observable toxicity ([39], [44]). Sham-operated animals underwent a laparotomy without CLP. After closure, the mice received a subcutaneous injection of 0.5 mL of normal saline to overcome surgery-induced dehydration. […] All mice were subcutaneously injected with a single dose of 0.1 mg/kg buprenorphine after CLP. Serum levels of alanine aminotransferase, aspartate aminotransferase, and lactate dehydrogenase were determined using specific colorimetric enzymatic assays (Pointe Scientific Inc.) according to the manufacturer’s instructions.

DLL1 = DLL1 mRNA in eCIRP-treated BMDNs, qPCR; type: cell-based, mouse; details: for DLL1 mRNA: DLL1-CIRP
Experimental: mRNA was extracted from lung tissues with TRIzol reagent (Invitrogen, Thermo Fisher Scientific). An equal amount ([…]) of mRNA was reverse-transcribed into cDNA using the reverse transcriptase enzyme (Invitrogen, Thermo Fisher Scientific). qPCR was performed from the diluted cDNA templates with forward and reverse primers (Supplemental Table 4) and SYBR Green PCR Master Mix (Applied Biosystems, Thermo Fisher Scientific) using an Applied Biosystems 7300 real-time PCR machine. Mouse β-actin served as an internal control gene for normalization. Relative expression of mRNA was represented as fold change in comparison with the sham group.
BMDNs (1 × 10^6) were treated with eCIRP (1 μg/mL) for 12 hours, and DLL1, DLL3, and DLL4 were analyzed by qPCR.

[1] = test system: DLL4 expression on WT BMDNs; assay: Frequency of DLL4^+ neutrophils (Ly6G^+DLL4^+), WT mouse BMDNs, flow cytometry; type: cell-based; details: for percentage of DLL4^+ neutrophils (Figure 1C): eCIRP 1 μg/mL, WT BMDNs 1 × 10^6/mL
Excerpt: Mice were anesthetized by 2% isoflurane inhalation, and the femora and tibiae were dissected. The bone marrow was flushed out with calcium- and magnesium-free HBSS using a 25-gauge needle into a Petri dish. Suspensions of cells were filtered through a 70 μm cell strainer (Corning), and bone marrow–derived neutrophils (BMDNs) were purified by negative selection using the EasySep mouse neutrophil enrichment kit (catalog 19762, STEMCELL Technologies). The purity of the sorted neutrophils was assessed by staining of the cells with APC-Ly6G antibody (clone 1A8, BioLegend) using a BD LSRFortessa flow cytometer (BD Biosciences).
In the time course experiments, BMDNs (1 × 10^6) were stimulated with eCIRP (1 μg/mL) for 2, 4, 6, and 12 hours. In the dose-response experiments, BMDNs (1 × 10^6) were treated with 0, 0.2, 0.5, or 1.0 μg/mL eCIRP for 12 hours. Single-cell suspensions were then stained with APC-conjugated anti–mouse Ly6G (clone 1A8, catalog 127614, BioLegend) and PE-conjugated anti-DLL4 (clone HMD4-1, catalog 130807, BioLegend), and analyzed by flow cytometry (BD LSRFortessa, BD Biosciences) to detect DLL4^+ neutrophils (Ly6G^+DLL4^+). Unstained cells were used to set voltages, and single-color controls were applied for compensation adjustment. Two hundred fifty microliters of whole blood obtained from sham, CLP, and PBS- or NDI-treated mice was taken into Falcon 15 mL conical tubes, and 5 mL red blood cell (RBC) lysis buffer (BD Biosciences) was added. After 1–2 minutes of incubation at room temperature, the samples were centrifuged at 300g for 10 minutes. Supernatants were aspirated, and the cell pellet was washed by suspension of the cells in 5 mL fluorescence-activated cell sorting (FACS) buffer containing 2% fetal bovine serum and centrifuged at 300g for 10 minutes. The supernatant was discarded, and the cell pellet was dissolved in […] FACS buffer. Lung tissues were finely diced using a sterile surgical blade and suspended in Ca^++- and Mg^++-free Hanks balanced salt solution (HBSS; Corning). Tissue digestion was performed in HBSS containing 100 U/mL of collagenase I (Worthington Biochemical) and 20 U/mL DNase I (Worthington Biochemical) at 37°C for 30 minutes with periodic shaking. Digested tissue fragments were crushed with a 10 mL syringe plunger and passed through a 70 μm cell strainer (Corning). Lysis of RBCs in lung cell suspensions was conducted using RBC lysis buffer (BD Biosciences). The isolated lung cells were counted using a microscope (Eclipse TS100, Nikon). To detect mouse DLL4^+ neutrophils, single-cell suspensions were stained with anti-mouse APC-Ly6G (clone 1A8, catalog 127614, BioLegend) and PE-DLL4 (clone HMD4-1, catalog 130807, BioLegend) and assessed for the detection of DLL4^+ neutrophils (Ly6G^+DLL4^+) by flow cytometry (BD LSRFortessa, BD Biosciences). Unstained cells were used to establish the flow cytometer voltage setting, and single-color positive controls were used to adjust the compensation. The acquisition was performed on 50,000 events using a BD LSRFortessa flow cytometer (BD Biosciences), and data were analyzed with FlowJo software (Tree Star). BMDNs were stimulated with eCIRP ([…]) for 2 hours. This time point was selected to maximize the viability and functionality of DLL4^+ neutrophils for downstream experiments, given their relatively short lifespan. After stimulation, cells were washed with PBS and resuspended in 1 mL FACS buffer, and DLL4^+ neutrophils (Ly6G^+DLL4^+) and DLL4^– neutrophils (Ly6G^+DLL4^–) were sorted by flow cytometry using a BD FACSAria IIu cell sorter (BD Biosciences).

## ECAGSPCHNGGTCEDGI [NDI]
C57BL/6 mice, CLP sepsis; DLL4^+ neutrophil-injected CLP mice, 10 mg/kg
  effect on serum ALT: significantly reduced the serum levels of hepatic and cell injury markers and proinflammatory cytokines
C57BL/6 mice, CLP sepsis; DLL4^+ neutrophils + CLP
  serum ALT (Figure 6A): 41.99 and 15.47 and 55.25 and 44.642 and 25.194 and 38.454 and 50.83 and 38.896 and 29.172 and 10.94 and 28.288 and 3.978 and 26.078 and 2.21
C57BL/6 mice, CLP sepsis; DLL4^– neutrophils + CLP
  serum ALT (Figure 6A): 37.57 and 15.028 and 26.52 and 77.35 and 30.94 and 22.1 and 12.818 and 10.608

B1: eCIRP: extracellular cold-inducible RNA-binding protein; recombinant murine, produced in our laboratory (protein, UniProt P60824 1-172, looked up)
Cold-inducible RNA-binding …: MASDEGKLFVGGLSFDTNEQALEQVFSKYGQISEVVVVKDRETQRSRGFGFVTFENIDDAKDAMMAMNGKSVDGRQIRVDQAGKSSDNRSRGYRGGSAGGRGFFRGGRSRGRGFSRGGGDRGYGGGRFESRSGGYGGSRDYYASRSQGGSYGYRSSGGSYRDSYDSYATHNE
DLL1; BMDNs, eCIRP 1 μg/mL, 12 h
  effect on DLL1 expression: no significant induction of DLL1 or DLL3
DLL1; replicate 1
  DLL1 mRNA: 0.838
DLL1; replicate 2
  DLL1 mRNA: 0.9002
DLL1; replicate 3
  DLL1 mRNA: 1.276
DLL1; replicate 4
  DLL1 mRNA: 1.001
DLL1; replicate 5
  DLL1 mRNA: 0.5711
DLL1; replicate 6
  DLL1 mRNA: 0.6454
DLL1; replicate 7
  DLL1 mRNA: 0.3425
DLL1; replicate 8
  DLL1 mRNA: 0.4208
[1]; 0.2 μg/mL rmCIRP, 12 h, WT BMDNs, individual replicates
  percentage of DLL4^+ neutrophils (Figure 1D): 6.79% and 7.39% and 5.07% and 2.01% and 1.58% and 2.94%
[1]; 0.5 μg/mL rmCIRP, 12 h, WT BMDNs, individual replicates
  percentage of DLL4^+ neutrophils (Figure 1D): 9.65% and 8% and 2.23% and 3.04% and 4.63% and 3.6%
[1]; 1 μg/mL eCIRP, 12 hours
  increase in DLL4^+ neutrophils compared with baseline: greater than 10 fold
[1]; 1 μg/mL rmCIRP, 12 h, WT BMDNs, individual replicates
  percentage of DLL4^+ neutrophils (Figure 1D): 9.46% and 10.2% and 10.3% and 9.59% and 14.64% and 11.2% and 19.6%
[1]; WT BMDNs, 1 μg/mL eCIRP, 12 h, individual replicates
  frequency of DLL4^+ neutrophils (Figure 1E): 10.6% and 7.8% and 13.4% and 4.22% and 4.99%
[1]; 2 h, individual replicates
  percentage of DLL4^+ neutrophils (Figure 1C): 2.37% and 2.69% and 2.61% and 1.38% and 2.29% and 2.02%
[1]; 4 h, individual replicates
  percentage of DLL4^+ neutrophils (Figure 1C): 2.2% and 3.33% and 2.32% and 3.85% and 1.73% and 1.34%
[1]; 6 h, individual replicates
  percentage of DLL4^+ neutrophils (Figure 1C): 5.6% and 3.69% and 4.86% and 3.28% and 2.75% and 2.78%
[1]; 12 h, individual replicates
  percentage of DLL4^+ neutrophils (Figure 1C): 25.8% and 23.2% and 5.76% and 10.3% and 13.1% and 19.7%
[1]; mouse BMDNs
  effect on frequency of DLL4^+ neutrophils: significantly increased the frequency (percentage) of DLL4^+ neutrophils in a time- and dose-dependent manner
